This note sets out measurements from PMC11324726, “Structural dynamics of protein-protein association involved in the light-induced transition of Avena sativa LOV2 protein” (Nature Communications, 2024).

Series [1] concerns the molecule itself. Put plainly: time-resolved X-ray liquidography (TRXL, TR-SAXS/WAXS); in solution; ns laser pump at 450 nm, X-ray probe; 1.5 mM protein in 20 mM Tris pH 7.0, 200 mM NaCl, 293 K; monomers (I2) to dimer (P); kinetic analysis by SVD and KCA, structural analysis aided by MD.
Series [2] deals with the molecule itself. In words: SEC; light state; monomer and dimer fractions by elution volume; conditions in Supplementary Note 3 and Supplementary Methods (not shown).

Numbering of substitutions follows the chain as printed. Numbers in names are those of the source.

B1: AsLOV2 (residue 404-546) I427V mutant (domain or fragment, Avena sativa, UniProt O49003 404-546, looked up)
chain: LATTLERIEKNFVITDPRLPDNPVIFASDSFLQLTEYSREEILGRNCRFLQGPETDRATVRKIRDAIDNQTEVTVQLINYTKSGKKFWNLFHLQPMRDQKGDVQYFIGVQLDGTEHVRDAAEREGVMLIKKTAENIDEAAKEL
notes: Avena sativa phototropin 1, residues 404-546, with I427V (faster photocycle); Carries FMN; Cys-FMN photoadduct in the light state; also called AsLOV2 I427V
As usually defined, the stoichiometry N is a count of units in the complex or per binding partner. As for B1, in series [1], the “stoichiometry N” value was 2.

B2: Avena sativa phototropin 1 LOV2 domain with A'α and Jα helices (residue 404-546), wild type (domain or fragment, UniProt O49003 404-546, looked up)
chain: B1 chain with V24I
notes: Avena sativa phototropin 1 (AsPhot1), A'α helix (404-412) + LOV2 core (413-520) + Jα helix (521-546), residues 404-546; Carries FMN as chromophore; in the light state a Cys-FMN photoadduct is formed; also called AsLOV2; AsLOV2 WT
As for B2, the “stoichiometry N” value in series [2] came out at 2.
